Source: article doi:10.1101/2024.01.23.576890 (bioRxiv, 2024)

Target: native OspA on the surface of live B. burgdorferi B31 (Borrelia burgdorferi strain B31 …, UniProt P0CL66)
Assay: flow cytometry on cells

Sequence of native OspA on the surface of live B. burgdorferi B31 (P0CL66 17-273): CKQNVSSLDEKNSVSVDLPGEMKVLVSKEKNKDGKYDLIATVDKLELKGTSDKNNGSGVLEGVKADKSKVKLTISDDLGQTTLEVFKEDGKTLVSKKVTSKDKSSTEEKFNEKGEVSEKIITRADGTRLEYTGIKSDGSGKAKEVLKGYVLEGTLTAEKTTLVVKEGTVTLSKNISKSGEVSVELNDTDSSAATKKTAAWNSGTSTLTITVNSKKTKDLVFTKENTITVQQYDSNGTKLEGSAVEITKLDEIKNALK

B1: LA-2 (bin 3 OspA monoclonal antibody; chimeric LA-2 IgG1) (antibody, V domains shown)
VH: QIQLVQSGPELKKPGETVKISCKASGYTFTDYSMYWVKQAPGKGLKRMGWINTETGEPTYADDFKGRFALSLDTSASTAYLHISNLKNEDTATYFCARGLDSWGQGTSVTVSS
VL: DIQMTQSPSSLSATLGGKVTITCKASQDINKYIAWYQHKPGKGPRLLIHYTSTLQPGNPSRFSGSGSGRDYSFSISNLEAEDIAIYYCLQYDNLQRTFGGGTKVEIK
- binding result: binds
